Source: patent US10358638B2, “Method of producing 1,5-pentadiamine using lysine decarboxylase mutant having improved thermal stability” (AJINOMOTO CO., INC., priority 2014, dated 2019)

Experiments:
[1] = Lysine decarboxylation reaction (1,5-PD production) in the presence of chelating agent; set-up: species or system Escherichia coli; conditions: 0.1 mM iron sulfate, 0.3 mM EDTA added, 37° C., 16 hours
Procedure: In the same manner as in Example 4, microbial cells of E. coli JM109/pCadA234 (double mutant expressing CadA at high level) were cultured, the cultured medium was prepared, and after completing the cultivation, incubated at 60° C. for one hour. The activity after incubation was measured, and the cultured medium was diluted so that the enzyme activity became 380 units/mL. 30 mL of this cultured medium containing the enzyme was added to 270 mL of a reaction solution containing 250 g/L of lysine hydrochloride (Ajinomoto Co., Ltd.), 26.5 mg/L of pyridoxal phosphate, 27.8 mg/L (0.1 mM) of iron sulfate heptahydrate and 111.6 mg/L (0.3 mM) of disodium dihydrogen ethylenediaminetetraacetate (EDTA), and the mixture was reacted at 37° C. for 16 hours. No EDTA was added in a control reaction. The pH value was 5.3 when the reaction was started, and elevated with progress of the reaction, but was kept at 7.0 by adding 30% (v/v) sulfuric acid when the pH value reached 7.0.
On the other hand, when EDTA was added, the inhibition of the reaction is restored and lysine was completely consumed. When EDTA was added, 135 g/L of 1,5-PD was formed and lysine was converted at a yield of 98%. […]

[2] = Inhibition of enzyme activity by iron ion and effect of chelating agent EDTA; assay type: biochemical, Escherichia coli
Procedure: (§1) The activity of the lysine decarboxylase was measured according to the method described in JP patent application laid-open Publication No. 2008-193899. 0.1 mL of a microbial cell suspension or a treated product thereof was added to 1 mL of a reaction solution containing 100 mM MES-NaOH buffer (pH 6.0), 10 g/L (55 mM) of L-lysine hydrochloride and 26.5 mg/L (0.1 mM) of PLP, and then the reaction mixture was incubated at 37° C. for 5 minutes. 0.1 mL of the reaction solution was collected and added to 1 mL of 1% (v/v) phosphoric acid to stop the reaction. Lysine and 1,5-PD were quantified with HPLC by a post column OPA method (S. R. Vale and M. B. Gloria, Journal Of AOAC International (1997) vol. 80, p. 1006-1012) or a method of quantifying remaining L-lysine using a biosensor BF-5 (Oji Scientific Instruments Co., Ltd.). One unit was defined as an activity that formed 1 μmol of 1,5-PD in one minute under this condition.
Cell free extracts were prepared from the strain expressing wild-type CadA and the strain overexpressing double mutant CadA, respectively in the same manner as in Examples 2 and 3. Using the resulting cell free extract, iron sulfate heptahydrate (Nacalai Tesque Inc.) at a final concentration of […] (2 mM) was added to the composition shown in Example 1, and an inhibitory effect was measured. […]

[3] = Remaining lysine decarboxylase activity of cell free extract after incubation at 68° C.; assay type: biochemical, Escherichia coli
Procedure: as §1
A combination mutant for increasing the amount of expressed CadA was constructed using QuikChange™ Site-Directed Mutagenesis Kit (Stratagene). A mutation to alter from Val (GTT) to Ile ([…]) at position 3 was introduced using the plasmid pCadA233 as the template and using oligonucleotides v3i_r (5′-cat gtg att caa tat tgc aat aat gtt cat cta cat tcc tcc tta cg-3′(SEQ ID NO:11)) and v3i_f (5′-cgt aag gag gaa tgt aga tga aca tta ttg caa tat tga atc aca tg-3′ (SEQ ID NO:12)) as primers according to a protocol. The nucleotide sequence of the constructed plasmid was determined by the method described in Example 2 to confirm that the objective mutation had been introduced, and this plasmid was designated as pCadA234. Microbial cells of E. coli JM109/pCadA234 expressing this double mutant CadA234 at high level were cultured to prepare a cell free extract in the same manner as in Example 2. The activity in this cell free extract was 663 U/mL, which was almost the same as that from the strain expressing the wild-type enzyme.
The resulting cell free extract was diluted to 20 fold with 0.1 M MES-NaOH buffer (pH 6.0). Each crude enzyme solution was incubated at 68° C., which is a higher temperature than in Example 2, and the remaining activity was measured over time. After incubation at 68° C. for one hour, the wild-type enzyme was inactivated to 27% while the single mutant enzymes V3I and A590T were inactivated to 47% and 27%, respectively. On the contrary, the double mutant enzyme retained 70% of its activity, and even after 3 hours, still retained about 60% of its activity (FIG. 1). Therefore, it was shown that the double mutation has a synergistic effect and further improved the thermal stability.

[4] = Enzyme activity of culture media of expressing strains after heat treatment with or without disruption; assay type: cell-based, Escherichia coli
Procedure: as §1
Microbial cells of E. coli JM109/pCadA220 and E. coli JM109/pCadA234 carrying the wild-type CadA and the double mutant CadA, respectively were cultured in the LB medium. Subsequently, 15 mL of the cultured medium was inoculated into 300 mL of culture medium (25 g/L of glucose, 5 g/L of ammonium sulfate, 2 g/L of potassium phosphate, 1 g/L of magnesium sulfate heptahydrate, 20 mg/L of iron sulfate heptahydrate, 20 mg/L of manganese sulfate pentahydrate, 1 mg/L of thiamine hydrochloride, 0.45 g/L of hydrolyzed soybeans, pH 7.0) in a 500 mL jar fermenter (manufactured by ABLE & Biott Co., Ltd.), and cultured with ventilation at 300 mL/minute while stirring at 250 rpm at 30° C. for 12 hours. Culture media containing 10.1 g/L and 10.9 g/L of microbial cells in terms of dry microbial cell weight were able to be prepared for E. coli JM109/pCadA220 and E. coli JM109/pCadA234, respectively. For the purpose of improving substrate permeability, the pH value was adjusted to 5.5, and subsequently the culture media were incubated at 55° C. and 60° C., and then the culture media were directly used to measure the activity after the incubation.
Since the lysine decarboxylase is expressed within the microbial cell, when the microbial cell is used directly, lysine cannot react with the lysine decarboxylase, and the efficiency of a decarboxylation reaction is very poor. […] However, the wild-type enzyme was inactivated during the incubation when heated excessively. The mutated enzyme having the improved thermal stability could stably keep its activity even when using conditions where the wild-type enzyme was easily inactivated as shown in Example 2. When the microbial cells carrying such a mutated enzyme were used, efficient treatment in a short period of time was possible. This has shown that the mutated enzyme not only can act at higher temperature upon reaction but also can be easily used when the microbial cell is directly used.

[5] = Incubation at 55° C. for 1 h, Disruption
[6] = Incubation at 55° C. for 1 h, physical treatment None
[7] = Incubation at 55° C. for 3 h, Disruption
[8] = Incubation at 55° C. for 3 h, physical treatment None
[9] = Incubation at 60° C. for 1 h, Disruption
[10] = Incubation at 60° C. for 1 h, physical treatment None
[11] = No heat treatment, physical treatment None

B1: pCadA234: lysine decarboxylase (CadA) V3I/A590T double mutant (protein, UniProt P0A9H3 1-715, looked up, variant V3I A590T)
Inducible lysine decarboxylase: MNIIAILNHMGVYFKEEPIRELHRALERLNFQIVYPNDRDDLLKLIENNARLCGVIFDWDKYNLELCEEISKMNENLPLYAFANTYSTLDVSLNDLRLQISFFEYALGAAEDIANKIKQTTDEYINTILPPLTKALFKYVREGKYTFCTPGHMGGTAFQKSPVGSLFYDFFGPNTMKSDISISVSELGSLLDHSGPHKEAEQYIARVFNADRSYMVTNGTSTANKIVGMYSAPAGSTILIDRNCHKSLTHLMMMSDVTPIYFRPTRNAYGILGGIPQSEFQHATIAKRVKETPNATWPVHAVITNSTYDGLLYNTDFIKKTLDVKSIHFDSAWVPYTNFSPIYEGKCGMSGGRVEGKVIYETQSTHKLLAAFSQASMIHVKGDVNEETFNEAYMMHTTTSPHYGIVASTETAAAMMKGNAGKRLINGSIERAIKFRKEIKRLRTESDGWFFDVWQPDHIDTTECWPLRSDSTWHGFKNIDNEHMYLDPIKVTLLTPGMEKDGTMSDFGIPASIVAKYLDEHGIVVEKTGPYNLLFLFSIGIDKTKALSLLRALTDFKRAFDLNLRVKNMLPSLYREDPEFYENMRIQELTQNIHKLIVHHNLPDLMYRAFEVLPTMVMTPYAAFQKELHGMTEEVYLDEMVGRINANMILPYPPGVPLVMPGEMITEESRPVLEFLQMLCEIGAHYPGFETDIHGAYRQADGRYTVKVLKEESKK
- yield of lysine conversion [1]: 98%
- activity with 2 mM iron ion, of the activity when no iron ion was added ([2]; 2 mM iron ion, no EDTA): 64.7%
- Enzyme activity ([2]; FeSO4 2 mM, EDTA 0.5 mM): 677 units/ml
- Enzyme activity ([2]; FeSO4 2 mM, EDTA 1 mM): 680 units/ml
- Enzyme activity ([2]; FeSO4 2 mM, EDTA 2 mM): 677 units/ml
- Enzyme activity ([2]; FeSO4 2 mM, EDTA 4 mM): 672 units/ml
- Enzyme activity ([2]; FeSO4 2 mM, EDTA 5 mM): 669 units/ml
- Enzyme activity ([2]; FeSO4 2 mM, EDTA None): 443 units/ml
- Enzyme activity ([2]; FeSO4 None, EDTA 2 mM): 677 units/ml
- Enzyme activity ([2]; FeSO4 None, EDTA None): 685 units/ml
- remaining activity after incubation at 68° C. for one hour ([3]; 68° C., 1 hour, FIG. 1): 70%
- remaining activity after incubation at 68° C. for 3 hours ([3]; 68° C., 3 hours, FIG. 1): about 60%
- activity in cell free extract ([3]; before incubation): 663 U/mL
- Enzyme activity [4, 5]: 758 units/ml
- Relative activity [4, 5]: 98.4%
- Enzyme activity [4, 6]: 475 units/ml
- Relative activity [4, 6]: 61.7%
- Enzyme activity [4, 7]: 659 units/ml
- Relative activity [4, 7]: 85.5%
- Enzyme activity [4, 8]: 601 units/ml
- Relative activity [4, 8]: 78.0%
- Enzyme activity [4, 9]: 754 units/ml
- Relative activity [4, 9]: 97.9%
- Enzyme activity [4, 10]: 426 units/ml
- Relative activity [4, 10]: 55.3%
- Enzyme activity ([4]; No heat treatment, Disruption): 770 units/ml
- Relative activity ([4]; No heat treatment, Disruption): 100%
- Enzyme activity [4, 11]: 16.0 units/ml
- Relative activity [4, 11]: 2.1%
